Here are results for one protein from PMC4870115 (Biochemistry, 2016).

This data set concerns the molecule itself. The experiment in a line: crystal structure.

B1: ToxA of Burkholderia glumae (enzyme)
chain: MSTTARYDSIGGLFEDFTQSAAQRAIEVRTIFHMIGDVSGKSVLDLACGFGFFGREIYRRGAAKVVGVDISEKMIELAREESRKYGDPLEFHVRDVANMEPLGQFDLVNAAWLFNYADSVENLRKMFKVVRASLKPDGKLVAYTVDPDFSLAKGNFAKYGVNVLNERAWGPGYRHDAEFVTDPPSQFSFYRWSRADYESAIADAGFSHFEWQKPLLEADDIATHPPGFWDVFQNNCLQTGLVCKP
B1: the “stoichiometry N” value stood at 4.
